Data: patent publication US20140274782A1, “AFFINITY REAGENTS AND METHODS FOR DETECTION, PURIFICATION, AND PROTEOMIC ANALYSIS OF METHYLATED PROTEINS” (The Board of Trustees of the Leland Stanford Junior …, priority 2013, published 2014)

Legend:
[1] = system: 3×MBT domain of L3MBTL1; assay: SILAC proteomic pull-down 3×MBT vs 3×MBTD355N from 293T nuclear extract, LC-MS/MS; assay type: binding, human; settings: for Protein Ratio 3xMBT/D355N: SILAC ratio, 293T nuclear extract pull-down, * = protein identified in only one labeling experiment
Description: Protein pull-downs were performed as described above using 600 μg of nuclear extract prepared with isotopic labels as indicated. After eluting with glutathione, 3×MBT domain was removed by dialysis into high salt and rebinding to GSH-sepharose. Bound proteins were separated by SDS-PAGE and analyzed by in-gel tryptic digest followed by LC-MS/MS. Peptides were identified using MaxQuant version 1.2.2.5 (Cox and Mann (2008) Nat. Biotechnol. 26, 1367-1372) and candidate methylated peptides were verified by manual inspection.
For stable isotope labeling by amino acids in cell culture (SILAC) experiments HEK 293T cells were grown for at least six doublings in DMEM for SILAC supplemented with 10% dialyzed fetal bovine serum (FBS), 230 mg/L L-proline and either 100 mg/L each of L-lysine and L-arginine (“light” medium), D4-L-lysine and ^13C6-L-arginine (“medium” media), or ^13C6^15N2-L-lysine and ^13C6^15N4-L-arginine (Thermo Scientific). Heavy methyl labeling used DMEM without L-Methionine or L-Cysteine supplemented with D3^13C-L-Methionine (Sigma), L-Cysteine (Sigma) and 10% dialyzed FBS.
600 μg of nuclear extract was incubated overnight rotating at 4° C. with 20 μl packed 3×MBT or 3×MBTD355N beads in a total volume of 250 μL with binding buffer. Supernatant was removed and saved for use as a loading control. Beads were washed 4×5 minutes with 0.5 mL binding buffer. Protein was eluted by incubating in 20 μL elution buffer (10 mg/mL glutathione in 50 mM Tris pH 8.0) rotating at 4° C. for four hours. Elutions from 3×MBT and 3×MBTD355N were combined and dialyzed overnight at 4° C. against 10,000× volume of dissociation buffer (50 mM Tris pH 7.5, 750 mM NaCl) in a 0.1 mL Slide-A-Lyzer MINI Dialysis Device with 3.5K molecular weight cutoff (Thermo Scientific). 80 μL of GSH-Sepharose was prepared by washing briefly three times with 0.5 mL binding buffer. Dialyzed proteins were added to the GSH-Sepharose and incubated 4 hours rotating at 4° C. to deplete the GST-fusion domains. Supernatant was transferred to a fresh 1.5 mL tube. Proteins were separated by SDS-PAGE on a 10% polyacrylamide gel and stained using SilverQuest Silver Staining Kit (Life Technologies). Lanes were excised, residual 3×MBT band was removed, and gel was diced into 0.5 mm cubes. Gel pieces were destained and processed by in-gel digestion (Carlson et al. (2011) Science Signaling 4) with sequencing grade trypsin (Promega) and the peptide sample was dried completely in a vacuum centrifuge. To prepare a loading control, 2 μL each of light and heavy nuclear extract were combined, 6 μL of 8M urea was added, proteins were denatured by adding 2 μL of 100 mM dithiothreitol in digest buffer (50 mM ammonium bicarbonate) and heating to 60° C. for 1 hour, cysteine was alkylated by adding 2.2 μL 100 mg/mL iodoacetamide in digest buffer and incubating 1 hour at room temperature in darkness, and proteins were digested by adding 80 μL trypsin (Promega) at 12.5 ng/μL in digest buffer and incubating overnight at room temperature in darkness. Digestion was stopped by adding 10 μL of 10% formic acid.
Each experiment consisted of two sets of pull-downs: “forward” labeling with 3×MBT incubated with light nuclear extract and 3×MBTD355N with medium extract, and a second “reverse” labeling experiment with the label conditions swapped. Proteins were included in the results if they were quantified in both labeling directions. To determine reproducibility the entire experiment including the label swap was duplicated using independent protein preparations and a mass spectrometer at another institution.
For 3×MBT pull-down experiment #1 the gel lane was processed and peptides were loaded off-line onto a first dimension trap column (Waters Xbridge, C18, 10 μm particle size, 100 Å pore size, 5 cm packing length, 150 μm column i.d.). […]

[2] = system: 3×MBT domain of L3MBTL1; assay: Triple SILAC pull-down, 3xMBT/3xMBTD355N ratio (cytoplasmic, nuclear and chromatin fractions of 293T cells); assay type: binding, human; settings: for 3xMBT/D355N UNC Heavy / 3xMBT/D355N UNC Light: SILAC ratio, pull-down 3xMBT vs 3xMBTD355N; for 3xMBT/D355N UNC Heavy: experiment with UNC0638 in heavy SILAC media; for 3xMBT/D355N UNC Light: experiment with UNC0638 in light SILAC media;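 as to all read-outs here: proteins quantified with MaxQuant, requiring at least two unique peptides and quantification in both label directions, normalized to the mean of proteins from a digested loading control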

Row | Molecule | Protein Ratio 3xMBT/D355N [1] | 3xMBT/D355N UNC Heavy [2] [log base 2] | 3xMBT/D355N UNC Light [2] [log base 2] | amount of protein captured from nucleoplasmic extract ([1]; 293T cells, silver stain, relative to the other domain) | number of the 544 identified proteins enriched at 2-fold versus the other domain ([1]; SILAC) | percentage of the 544 identified proteins enriched at 2-fold versus the other domain ([1]; SILAC) [%] | number of proteins enriched by 3×MBT compared to 3×MBTD355N ([2]; two biological replicates)
1 | eEF1A1: protein with methylated lysine identified in 3xMBT pull-down (protein, UniProt P68104 2-462, looked up, methylated lysine, protein with methylated lysine identified in 3xMBT pull-down) Elongation factor 1-alpha 1: GKEKTHINIVVIGHVDSGKSTTTGHLIYKCGGIDKRTIEKFEKEAAEMGKGSFKYAWVLDKLKAERERGITIDISLWKFETSKYYVTIIDAPGHRDFIKNMITGTSQADCAVLIVAAGVGEFEAGISKNGQTREHALLAYTLGVKQLIVGVNKMDSTEPPYSQKRYEEIVKEVSTYIKKIGYNPDTVAFVPISGWNGDNMLEPSANMPWFKGWKVTRKDGNASGTTLLEALDCILPPTRPTDKPLRLPLQDVYKIGGIGTVPVGRVETGVLKPGMVVTFAPVNVTTEVKSVEMHHEALSEALPGDNVGFNVKNVSVKDVRRGNVAGDSKNDPPMEAAGFTAQVIILNHPGQISAGYAPVLDCHTAHIACKFAELKEKIDRRSGKKLEDGPKFLKSGDAAIVDMVPGKPMCVESFSDYPPLGRFAVRDMRQTVAVGVIKAVDKKAAGAGKVTKSAQKAQKAK | 5.2 | 3.08 | 2.87 |  |  |  | 
2 | DDX1: protein with methylated lysine identified in 3xMBT pull-down (protein, UniProt Q92499 1-740, looked up) ATP-dependent RNA helicase …: MAAFSEMGVMPEIAQAVEEMDWLLPTDIQAESIPLILGGGDVLMAAETGSGKTGAFSIPVIQIVYETLKDQQEGKKGKTTIKTGASVLNKWQMNPYDRGSAFAIGSDGLCCQSREVKEWHGCRATKGLMKGKHYYEVSCHDQGLCRVGWSTMQASLDLGTDKFGFGFGGTGKKSHNKQFDNYGEEFTMHDTIGCYLDIDKGHVKFSKNGKDLGLAFEIPPHMKNQALFPACVLKNAELKFNFGEEEFKFPPKDGFVALSKAPDGYIVKSQHSGNAQVTQTKFLPNAPKALIVEPSRELAEQTLNNIKQFKKYIDNPKLRELLIIGGVAARDQLSVLENGVDIVVGTPGRLDDLVSTGKLNLSQVRFLVLDEADGLLSQGYSDFINRMHNQIPQVTSDGKRLQVIVCSATLHSFDVKKLSEKIMHFPTWVDLKGEDSVPDTVHHVVVPVNPKTDRLWERLGKSHIRTDDVHAKDNTRPGANSPEMWSEAIKILKGEYAVRAIKEHKMDQAIIFCRTKIDCDNLEQYFIQQGGGPDKKGHQFSCVCLHGDRKPHERKQNLERFKKGDVRFLICTDVAARGIDIHGVPYVINVTLPDEKQNYVHRIGRVGRAERMGLAISLVATEKEKVWYHVCSSRGKGCYNTRLKEDGGCTIWYNEMQLLSEIEEHLNCTISQVEPDIKVPVDEFDGKVTYGQKRAAGGGSYKGHVDILAPTVQELAALEKEAQTSFLHLGYLPNQLFRTF | 11.2 | 3.07 | 3.64 |  |  |  | 
3 | CMAS: protein with methylated lysine identified in 3xMBT pull-down (protein, UniProt Q8NFW8 1-434, looked up) N-acylneuraminate …: MDSVEKGAATSVSNPRGRPSRGRPPKLQRNSRGGQGRGVEKPPHLAALILARGGSKGIPLKNIKHLAGVPLIGWVLRAALDSGAFQSVWVSTDHDEIENVAKQFGAQVHRRSSEVSKDSSTSLDAIIEFLNYHNEVDIVGNIQATSPCLHPTDLQKVAEMIREEGYDSVFSVVRRHQFRWSEIQKGVREVTEPLNLNPAKRPRRQDWDGELYENGSFYFAKRHLIEMGYLQGGKMAYYEMRAEHSVDIDVDIDWPIAEQRVLRYGYFGKEKLKEIKLLVCNIDGCLTNGHIYVSGDQKEIISYDVKDAIGISLLKKSGIEVRLISERACSKQTLSSLKLDCKMEVSVSDKLAVVDEWRKEMGLCWKEVAYLGNEVSDEECLKRVGLSGAPADACSTAQKAVGYICKCNGGRGAIREFAEHICLLMEKVNNSCQK | 4.2 | 2.71 | 2.86 |  |  |  | 
4 | 3×MBT: three MBT repeats of L3MBTL1 (amino acids 190-530 of accession NP—056293.4), expressed as GST or Flag fusion; methyl-lysine affinity reagent (protein, left off: a dimerising Fc or GST) EEWSSSQPATGEKKECWSWESYLEEQKAITAPVSLFQDSQAVTHNKNGFKLGMKLEGIDPQHPSMYFILTVAEVCGYRLRLHFDGYSECHDFWVNANSPDIHPAGWFEKTGHKLQPPKGYKEEEFSWSQYLRSTRAQAAPKHLFVSQSHSPPPLGFQVGMKLEAVDRMNPSLVCVASVTDVVDSRFLVHFDNWDDTYDYWCDPSSPYIHPVGWCQKQGKPLTPPQDYPDPDNFCWEKYLEETGASAVPTWAFKVRPPHSFLVNMKLEAVDRRNPALIRVASVEDVEDHRIKIHFDGWSHGYDFWIDADHPDIHPAGWCSKTGHPLQPPLGPREPSSASPGG |  |  |  | captured more proteins | 313 | 57.5 | 370
5 | GTF2I: protein with methylated lysine identified in 3xMBT pull-down (protein, UniProt P78347 2-998, looked up, methylated lysine, protein with methylated lysine identified in 3xMBT pull-down) General transcription factor …: AQVAMSTLPVEDEESSESRMVVTFLMSALESMCKELAKSKAEVACIAVYETDVFVVGTERGRAFVNTRKDFQKDFVKYCVEEEEKAAEMHKMKSTTQANRMSVDAVEIETLRKTVEDYFCFCYGKALGKSTVVPVPYEKMLRDQSAVVVQGLPEGVAFKHPENYDLATLKWILENKAGISFIIKRPFLEPKKHVGGRVMVTDADRSILSPGGSCGPIKVKTEPTEDSGISLEMAAVTVKEESEDPDYYQYNIQAGPSETDDVDEKQPLSKPLQGSHHSSEGNEGTEMEVPAEDSTQHVPSETSEDPEVEVTIEDDDYSPPSKRPKANELPQPPVPEPANAGKRKVREFNFEKWNARITDLRKQVEELFERKYAQAIKAKGPVTIPYPLFQSHVEDLYVEGLPEGIPFRRPSTYGIPRLERILLAKERIRFVIKKHELLNSTREDLQLDKPASGVKEEWYARITKLRKMVDQLFCKKFAEALGSTEAKAVPYQKFEAHPNDLYVEGLPENIPFRSPSWYGIPRLEKIIQVGNRIKFVIKRPELLTHSTTEVTQPRTNTPVKEDWNVRITKLRKQVEEIFNLKFAQALGLTEAVKVPYPVFESNPEFLYVEGLPEGIPFRSPTWFGIPRLERIVRGSNKIKFVVKKPELVISYLPPGMASKINTKALQSPKRPRSPGSNSKVPEIEVTVEGPNNNNPQTSAVRTPTQTNGSNVPFKPRGREFSFEAWNAKITDLKQKVENLFNEKCGEALGLKQAVKVPFALFESFPEDFYVEGLPEGVPFRRPSTFGIPRLEKILRNKAKIKFIIKKPEMFETAIKESTSSKSPPRKINSSPNVNTTASGVEDLNIIQVTIPDDDNERLSKVEKARQLREQVNDLFSRKFGEAIGMGFPVKVPYRKITINPGCVVVDGMPPGVSFKAPSYLEISSMRRILDSAEFIKFTVIRPFPGLVINNQLVDQSESEGPVIQESAEPSQLEVPATEEIKETDGSSQIKQEPDPTW | 1.5 | 3.02 | 2.75 |  |  |  | 
